In paper PMC9376891 (Nature Communications, 2022):

Each binder was assayed against T1, Rae1(31-368)-Nup98(157-213) heterodimer (human, UniProt P78406 31-368; P52948 157-213) (assay: ITC). Conditions: both partners purified.
T1 construct: also called Rae1-Nup98; Rae1-Nup98 complex
T1 sequence (P78406 31-368, chain 1 of 2): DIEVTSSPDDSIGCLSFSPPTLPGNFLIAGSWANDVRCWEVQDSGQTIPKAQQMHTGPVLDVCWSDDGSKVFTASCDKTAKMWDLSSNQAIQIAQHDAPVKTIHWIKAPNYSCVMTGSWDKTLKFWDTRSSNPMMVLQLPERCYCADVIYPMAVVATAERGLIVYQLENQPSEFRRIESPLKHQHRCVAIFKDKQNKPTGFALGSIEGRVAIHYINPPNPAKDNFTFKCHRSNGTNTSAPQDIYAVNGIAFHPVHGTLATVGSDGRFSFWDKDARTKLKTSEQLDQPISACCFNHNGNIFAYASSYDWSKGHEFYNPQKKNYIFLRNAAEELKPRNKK
T1 sequence (P52948 157-213, chain 2 of 2): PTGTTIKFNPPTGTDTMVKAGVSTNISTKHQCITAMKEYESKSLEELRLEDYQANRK
In the case of YSQLDEEQPMEAD (source: synthetic peptide) [SARS-CoV-2 ORF6 C3 peptide I60A], the “fold reduction of binding affinity against SARS-CoV-2 ORF6 C3” value is reported as ~17.5 fold. For YSQLDEEQPLEID (source: synthetic peptide) [SARS-CoV-2 ORF6 C3 peptide M58L], the Kd was 10.4 µM. YSQLDEEEPMEID (source: synthetic peptide) [SARS-CoV-2 ORF6 C3 peptide Q56E] was tested, and the “fold increase of binding affinity against SARS-CoV-2 ORF6 C3” value was ~6 fold.

These binders were tested against T2, Rae1(31-368)-Nup98(157-213) heterodimer (human, UniProt P78406 31-368; P52948 157-213) (assay: ITC). Conditions: both partners purified.
T2 construct: also called Rae1-Nup98; Rae1-Nup98 complex
T2 sequence (P78406 31-368, chain 1 of 2): as the sequence (P78406 31-368, chain 1 of 2) above
T2 sequence (P52948 157-213, chain 2 of 2): as the sequence (P52948 157-213, chain 2 of 2) above
YSQLDEEQPMEIA (source: synthetic peptide) [SARS-CoV-2 ORF6-D61A] was tested, and the Ka was 361000 M⁻¹, the Kd was 2.77 µM and the “stoichiometry N” value was 0.76. YSQLDEEQPMAID (source: synthetic peptide) [SARS-CoV-2 ORF6-E59A] was tested, and the Ka was 606000 M⁻¹, the Kd was 1.65 µM and the “stoichiometry N” value was 0.68. In the case of YSQLDEEQPMEAD (source: synthetic peptide) [SARS-CoV-2 ORF6-I60A], the Ka is reported as 238000 M⁻¹, the Kd is reported as 4.2 µM and the “stoichiometry N” value is reported as 0.68. YSQLDEEQPLEID (source: synthetic peptide) [SARS-CoV-2 ORF6-M58L] was tested, and the Ka was 96400 M⁻¹ and the “stoichiometry N” value was 1. YSQLDEEQAMEID (source: synthetic peptide) [SARS-CoV-2 ORF6-P57A] was tested, and the Ka was 1.12e+06 M⁻¹, the Kd was 0.89 µM and the “stoichiometry N” value was 2.34.

Target: T2, Rae1(31-368)-Nup98(157-213) heterodimer
Test: ITC
Conditions: both partners purified
Remark: another data set of the same source
For YSQLAEEQPMEID (source: synthetic peptide) [SARS-CoV-2 ORF6-D53A], the Ka was 863000 M⁻¹, the Kd was 1.15 µM and the “stoichiometry N” value was 0.71. In the case of YSQLDAEQPMEID (source: synthetic peptide) [SARS-CoV-2 ORF6-E54A], the Ka is reported as 1.72e+06 M⁻¹, the Kd is reported as 0.58 µM and the “stoichiometry N” value is reported as 0.59. YSQLDEAQPMEID (source: synthetic peptide) [SARS-CoV-2 ORF6-E55A] was tested, and the Ka was 1.75e+06 M⁻¹, the Kd was 0.57 µM and the “stoichiometry N” value was 0.65. For YSQLDEEEPMEID (source: synthetic peptide) [SARS-CoV-2 ORF6-Q56E], the Ka was 2.08e+07 M⁻¹, the Kd was 0.04 µM and the “stoichiometry N” value was 0.781.
